Results published in patent JPH06217786A.

Biological target: FHV−1-K1ウイルス粒子 (feline herpesvirus-1, strain K1, virus particles; crude ammonium sulfate precipitate)
Experiment: cell-based or functional assay

B1: 抗FHV−1キメラ抗体FH2 (cat-type anti-FHV-1 chimeric antibody FH2) (antibody, part only; not given: cat constant regions, part only)
heavy, part: QVTLKESGPGILQPSQTLSLTCSFSGFSLSTSGMGAGWIRQPSGKGLEWLAHIWWDDVKRYNPALKSRLTISKDTSSSQVFLKIASVDTADTATYFCVRSQIYFDYDGAWFPFWGQGTLVTVSA
light, part: DIVLTQSPATLSVTPGDSVSLSCRASQSISNNLHWYQQKSHESPRLLIKYASQSISGIPSRFSGSGSGTDFTLSINSVETEDFGMYFCQQSNSWPHTFGAGTKLELK
  最低有効中和濃度 (lowest effective neutralising concentration; 100 TCID50 FHV-1, CPE on CRFK cells): 1.95 µg/mL
